B1: monoclonal antibody CJ7-6-B7 (antibody, V domains shown)
VH: NVQLQESGPGLVKPSQSLSLTCTVTGHSITSDYAWNWIRQFPGNKLEWMGYITNSGSTTYNPSLKSRISITRDTSKNQFFLQLNSVTTEDTATYYCTRGGPYWGQGTLVTVSA
VL: DIVMTQSQKFMSTSVGDRVSITCKASQNVGTAVVWYQQKPGQSPKLLIYSASNRYTGVPDRFTGSGSGTDFTLTITNMQSEDLADYFCQQYSSYPLTFGAGTKLELK
B2: monoclonal antibody 12/B3-5-B11 (antibody, V domains shown)
VH: DVQLQESGPGLVKPSQSLSLTCTVTGYSITSDYAWNWIRQFPGNKLEWMGYISYSGTTTYNPSLKSRISITRHTSKNQFFLQLNSVTTEDSATYYCTRLGYYFDYWGQGTTLTVSS
VL: DIVMTQSPASLAMSVGQKVTMNCKSSQSLLSSKNQKNFLAWYQQKPGQSPKVLVYFASTRASGVPDRFIGSGSGTDFTLTISSVQAEDLADYFCQQQYNTPLTFGAGTKLELK
B3: monoclonal antibody BTS4-1 (antibody, V domains shown)
VH: QIQLVQSGPELKKPGETVKISCKASGYTFTDCSMHWVKQAPGQGLKWMGWINTKTGEPTYADDFKGRFAFSLETSASTAYLQINILKNEDSATYFCAAHSGKDYAIDYWGQGTSVTVSS
VL: DVLMTQTPLSLPVSLGDQASISCRSSQSIVHRNGNTYLEWYLQKPGQSPKLLIYKVSNRFSGVPDRFSGSGSGTDFTLRISRVEAQDLGVYFCFQGSRVPPTFGGGTKLEIK
B4: monoclonal antibody 5/C7-6-C8 (antibody, V domains shown)
VH: EVQLVESGGGLVEPGGSLKLSCVASGFTFSTYAMSWFRLTPERRLEWVAAISNGGSQNSYPDSVKGRFTVSRDNAKNTLYLQMSSLRSEDTAMYYCSRNGNYFDYWGQGTTLTVSS
VL: QIVLTQSPAIMSASPGEKVTMTCSASSSISYMHWYQQKPGTSPKRWIFDTSKLASGVPARFSGSGSGTSYSLTISSMEAEDAATYYCHQRSSYPTFGSGTKLEIK

Experimental findings from US20140147456A1 (AFFIRIS, published 2014) are described below.

In this assay the target is T1, recombinantly expressed human CETP N-terminally fused to GST (human, UniProt P11597 18-493, limits assumed).
T1 construct: coated antigen of the protein ELISA; also called GST-CETP; CETP protein; not shown: GST (Glutathione-S-transferase) tag at the N-terminus
T1 sequence (looked up): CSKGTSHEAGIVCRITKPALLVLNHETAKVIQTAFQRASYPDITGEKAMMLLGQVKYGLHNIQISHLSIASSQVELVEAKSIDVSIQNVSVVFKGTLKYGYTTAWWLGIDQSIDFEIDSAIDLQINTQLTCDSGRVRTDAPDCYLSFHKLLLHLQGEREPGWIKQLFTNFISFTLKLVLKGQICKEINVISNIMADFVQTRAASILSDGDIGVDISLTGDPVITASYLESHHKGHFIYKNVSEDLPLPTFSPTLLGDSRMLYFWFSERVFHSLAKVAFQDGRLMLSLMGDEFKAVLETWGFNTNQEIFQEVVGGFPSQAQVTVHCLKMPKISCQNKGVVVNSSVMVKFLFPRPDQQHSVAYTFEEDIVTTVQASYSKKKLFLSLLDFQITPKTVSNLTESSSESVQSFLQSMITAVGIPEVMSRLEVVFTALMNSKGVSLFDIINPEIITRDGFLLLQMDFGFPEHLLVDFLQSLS
The assay can be described thus: human CETP protein ELISA, coated protein, antibody titrated.
For the molecule B1, the binding result is reported as “binds”.
For the molecule B2, the binding result is reported as “binds”.
In the case of B3, the binding result is on record as “binds”.
Next, B4: “binds”.
